The supplement of paper PMC10065799, “High-throughput profiling of sequence recognition by tyrosine kinases and SH2 domains using bacterial peptide display” (eLife, 2023)
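Wherever SH2 binding enrichment of the phosphorylated peptide, bacterial display is given: peptide library displayed on the E. coli surface as eCPX fusions, selected cells deep-sequenced, score is each peptide's frequency after selection divided by its frequency in the input.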
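Wherever phosphorylation enrichment, bacterial display is given: 11-residue human phosphosite peptides and single-mutation variants displayed on the E. coli surface, counted by deep sequencing, each peptide's frequency after selection divided by its frequency in the unselected input library; frequency after pTyr selection over input frequency; kinase dosed for 20-30% of maximal phosphorylation in three min.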

These sequences were tested against SHP2-C SH2 (assay: SH2 binding enrichment of the phosphorylated peptide, bacterial display (enrichment ratio); higher = better substrate or ligand; peptides without Tyr show the background).
Work on PSDPSYEDMRE [BMPR1A_Y467] yielded an SH2 binding enrichment of 0.324. For FSLIHYASIVD [MYH7_Y582_G584S], the SH2 binding enrichment was 37.2. With CNRADYSKLAS [GNE_Y22_P27S] the SH2 binding enrichment was 0.625. With PIFEGYGLPHA [ACTA1_Y171_A172G_YF] the SH2 binding enrichment was 0.581. FKDFFYCWNTF [AICDA_Y146_YF] showed an SH2 binding enrichment of 0.631. For PLGPLYASSNT [INSR_Y992_P997T], the SH2 binding enrichment was 1.1. TEAGNYKLCFD [TMED1_Y103_D102N] gave an SH2 binding enrichment of 0.538. Work on KKHIPYREHKS [CSNK1G1_Y205] yielded an SH2 binding enrichment of 2.1. With RSSNTYTLTDV [ALCAM_Y298] the SH2 binding enrichment was 0.689. EEVKAYLDFRE [CHAC2_Y78] was tested, and the SH2 binding enrichment was 0.556. For DTVRIYDDDFF [UBA1_Y560_E557V], the SH2 binding enrichment was 0.578. With IGEGTYRQVFK [CDK13_Y716_G717R_YF] the SH2 binding enrichment was 0.505. SYCYRYRCAAR [SUMF1_Y344] showed an SH2 binding enrichment of 0.608. MASTSYDFCRV [BST2_Y6_YF] gave an SH2 binding enrichment of 0.727. For QMIETYFDFRV [NSMF_Y506_L511V], the SH2 binding enrichment was 0.607. Work on RQQEDYLLYKQ [RARRES1_Y159] yielded an SH2 binding enrichment of 0.842. AGLEDYDRLRP [RAC3_Y64_Q61L] was tested, and the SH2 binding enrichment was 0.888. AELVRYYMEHH [PTPN11_Y80_Q79R] showed an SH2 binding enrichment of 0.875. For TCRPPYFHRNC [HGD_Y333_F329C_YF], the SH2 binding enrichment was 0.9. Sequence SVTCTYSPARN [TP53_Y126_L130R] has an SH2 binding enrichment of 0.613. FQEKGYNKEPR [CHRND_Y38_L42P] showed an SH2 binding enrichment of 0.981. Sequence EDGCIYPATIA [SMN1_Y109] has an SH2 binding enrichment of 0.671. Work on WSISFYPQVIM [CTNS_Y143] yielded an SH2 binding enrichment of 0.588. WQQQSYLYSGI [CTNNB1_Y30_D32Y] showed an SH2 binding enrichment of 0.687. Work on HESEIYCKVCY [CSRP3_Y57] yielded an SH2 binding enrichment of 1.81. For LKTNWYNNGKD [DNMT3B_Y404_C403W], the SH2 binding enrichment was 1.12. With KPVDTYFDSTR [DYNC2H1_Y2230_M2227V_YF] the SH2 binding enrichment was 0.693. For VFLGAYDHFLP [SLC22A5_Y486_R488H_YF], the SH2 binding enrichment was 1. In the case of RLPSGYGLAYR [DLK1_Y262], the SH2 binding enrichment is reported as 0.954.

Each sequence was assayed against c-Src SH2 in the same assay as above.
With PSDPSYEDMRE [BMPR1A_Y467] the SH2 binding enrichment was 1.12. FSLIHYASIVD [MYH7_Y582_G584S] was tested, and the SH2 binding enrichment was 7.83. In the case of CNRADYSKLAS [GNE_Y22_P27S], the SH2 binding enrichment is reported as 0.938. PIFEGYGLPHA [ACTA1_Y171_A172G_YF] showed an SH2 binding enrichment of 0.516. FKDFFYCWNTF [AICDA_Y146_YF] was tested, and the SH2 binding enrichment was 0.423. In the case of PLGPLYASSNT [INSR_Y992_P997T], the SH2 binding enrichment is reported as 0.526. For TEAGNYKLCFD [TMED1_Y103_D102N], the SH2 binding enrichment was 0.466. KKHIPYREHKS [CSNK1G1_Y205] was tested, and the SH2 binding enrichment was 1.88. RSSNTYTLTDV [ALCAM_Y298] gave an SH2 binding enrichment of 1.19. For EEVKAYLDFRE [CHAC2_Y78], the SH2 binding enrichment was 0.33. In the case of DTVRIYDDDFF [UBA1_Y560_E557V], the SH2 binding enrichment is reported as 0.909. IGEGTYRQVFK [CDK13_Y716_G717R_YF] was tested, and the SH2 binding enrichment was 0.41. For SYCYRYRCAAR [SUMF1_Y344], the SH2 binding enrichment was 0.419. With MASTSYDFCRV [BST2_Y6_YF] the SH2 binding enrichment was 1.66. With QMIETYFDFRV [NSMF_Y506_L511V] the SH2 binding enrichment was 0.581. RQQEDYLLYKQ [RARRES1_Y159] was tested, and the SH2 binding enrichment was 0.561. Sequence AGLEDYDRLRP [RAC3_Y64_Q61L] has an SH2 binding enrichment of 0.547. In the case of AELVRYYMEHH [PTPN11_Y80_Q79R], the SH2 binding enrichment is reported as 0.69. In the case of TCRPPYFHRNC [HGD_Y333_F329C_YF], the SH2 binding enrichment is reported as 1. SVTCTYSPARN [TP53_Y126_L130R] gave an SH2 binding enrichment of 0.371. In the case of FQEKGYNKEPR [CHRND_Y38_L42P], the SH2 binding enrichment is reported as 0.67. Sequence EDGCIYPATIA [SMN1_Y109] has an SH2 binding enrichment of 0.589. Work on WSISFYPQVIM [CTNS_Y143] yielded an SH2 binding enrichment of 0.571. In the case of WQQQSYLYSGI [CTNNB1_Y30_D32Y], the SH2 binding enrichment is reported as 1.37. In the case of HESEIYCKVCY [CSRP3_Y57], the SH2 binding enrichment is reported as 1.8. LKTNWYNNGKD [DNMT3B_Y404_C403W] gave an SH2 binding enrichment of 0.464. In the case of KPVDTYFDSTR [DYNC2H1_Y2230_M2227V_YF], the SH2 binding enrichment is reported as 0.422. With VFLGAYDHFLP [SLC22A5_Y486_R488H_YF] the SH2 binding enrichment was 1.46. Sequence RLPSGYGLAYR [DLK1_Y262] has an SH2 binding enrichment of 0.844.

Each sequence was assayed against Grb2 SH2 (UniProt P62993) in the same assay as above.
Sequence of Grb2 SH2 (P62993 whole entry, looked up): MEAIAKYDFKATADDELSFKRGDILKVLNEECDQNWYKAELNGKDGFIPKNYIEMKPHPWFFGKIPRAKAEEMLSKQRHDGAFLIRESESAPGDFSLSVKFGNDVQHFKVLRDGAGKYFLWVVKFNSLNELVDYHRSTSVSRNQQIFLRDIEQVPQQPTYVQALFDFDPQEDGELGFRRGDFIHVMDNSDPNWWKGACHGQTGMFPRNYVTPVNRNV
PSDPSYEDMRE [BMPR1A_Y467] was tested, and the SH2 binding enrichment was 0.832. For FSLIHYASIVD [MYH7_Y582_G584S], the SH2 binding enrichment was 1.08. CNRADYSKLAS [GNE_Y22_P27S] was tested, and the SH2 binding enrichment was 0.874. For PIFEGYGLPHA [ACTA1_Y171_A172G_YF], the SH2 binding enrichment was 0.612. FKDFFYCWNTF [AICDA_Y146_YF] gave an SH2 binding enrichment of 0.696. PLGPLYASSNT [INSR_Y992_P997T] gave an SH2 binding enrichment of 0.914. Sequence TEAGNYKLCFD [TMED1_Y103_D102N] has an SH2 binding enrichment of 0.924. In the case of KKHIPYREHKS [CSNK1G1_Y205], the SH2 binding enrichment is reported as 1.99. RSSNTYTLTDV [ALCAM_Y298] gave an SH2 binding enrichment of 0.82. EEVKAYLDFRE [CHAC2_Y78] was tested, and the SH2 binding enrichment was 0.651. For DTVRIYDDDFF [UBA1_Y560_E557V], the SH2 binding enrichment was 0.93. IGEGTYRQVFK [CDK13_Y716_G717R_YF] gave an SH2 binding enrichment of 0.732. With SYCYRYRCAAR [SUMF1_Y344] the SH2 binding enrichment was 0.717. Work on MASTSYDFCRV [BST2_Y6_YF] yielded an SH2 binding enrichment of 0.99. QMIETYFDFRV [NSMF_Y506_L511V] gave an SH2 binding enrichment of 0.642. RQQEDYLLYKQ [RARRES1_Y159] gave an SH2 binding enrichment of 0.821. Work on AGLEDYDRLRP [RAC3_Y64_Q61L] yielded an SH2 binding enrichment of 0.732. Work on AELVRYYMEHH [PTPN11_Y80_Q79R] yielded an SH2 binding enrichment of 0.89. For TCRPPYFHRNC [HGD_Y333_F329C_YF], the SH2 binding enrichment was 1.45. SVTCTYSPARN [TP53_Y126_L130R] was tested, and the SH2 binding enrichment was 0.793. FQEKGYNKEPR [CHRND_Y38_L42P] showed an SH2 binding enrichment of 1. With EDGCIYPATIA [SMN1_Y109] the SH2 binding enrichment was 0.927. WSISFYPQVIM [CTNS_Y143] was tested, and the SH2 binding enrichment was 0.883. Work on WQQQSYLYSGI [CTNNB1_Y30_D32Y] yielded an SH2 binding enrichment of 0.972. With HESEIYCKVCY [CSRP3_Y57] the SH2 binding enrichment was 1.58. For LKTNWYNNGKD [DNMT3B_Y404_C403W], the SH2 binding enrichment was 1.17. In the case of KPVDTYFDSTR [DYNC2H1_Y2230_M2227V_YF], the SH2 binding enrichment is reported as 0.83. VFLGAYDHFLP [SLC22A5_Y486_R488H_YF] gave an SH2 binding enrichment of 0.833. Work on RLPSGYGLAYR [DLK1_Y262] yielded an SH2 binding enrichment of 0.855.

What follows are sequences tested against Fyn (UniProt P06241) (assay: phosphorylation enrichment, bacterial display (enrichment ratio); higher = better substrate or ligand; peptides without Tyr show the background).
Sequence of Fyn (P06241 whole entry, looked up): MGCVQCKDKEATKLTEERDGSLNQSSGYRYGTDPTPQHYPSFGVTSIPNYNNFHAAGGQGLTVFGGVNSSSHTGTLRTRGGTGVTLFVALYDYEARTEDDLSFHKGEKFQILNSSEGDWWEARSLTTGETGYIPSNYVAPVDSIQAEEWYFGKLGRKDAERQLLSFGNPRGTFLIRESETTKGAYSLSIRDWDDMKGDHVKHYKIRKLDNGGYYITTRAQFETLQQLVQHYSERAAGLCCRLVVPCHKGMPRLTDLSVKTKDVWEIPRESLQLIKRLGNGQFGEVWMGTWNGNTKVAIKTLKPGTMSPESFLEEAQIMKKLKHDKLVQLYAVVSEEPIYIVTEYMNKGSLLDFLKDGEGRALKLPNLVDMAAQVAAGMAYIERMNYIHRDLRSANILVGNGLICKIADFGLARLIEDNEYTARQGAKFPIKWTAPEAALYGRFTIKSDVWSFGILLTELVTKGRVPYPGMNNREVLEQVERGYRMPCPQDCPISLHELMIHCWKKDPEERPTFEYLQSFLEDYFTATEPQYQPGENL
For PSDPSYEDMRE [BMPR1A_Y467], the phosphorylation enrichment was 0.848. Work on FSLIHYASIVD [MYH7_Y582_G584S] yielded a phosphorylation enrichment of 0.488. Sequence CNRADYSKLAS [GNE_Y22_P27S] has a phosphorylation enrichment of 0.377. In the case of PIFEGYGLPHA [ACTA1_Y171_A172G_YF], the phosphorylation enrichment is reported as 0.701. Sequence FKDFFYCWNTF [AICDA_Y146_YF] has a phosphorylation enrichment of 0.618. PLGPLYASSNT [INSR_Y992_P997T] was tested, and the phosphorylation enrichment was 0.908. TEAGNYKLCFD [TMED1_Y103_D102N] showed a phosphorylation enrichment of 0.505. KKHIPYREHKS [CSNK1G1_Y205] gave a phosphorylation enrichment of 0.888. Sequence RSSNTYTLTDV [ALCAM_Y298] has a phosphorylation enrichment of 1.6. Work on EEVKAYLDFRE [CHAC2_Y78] yielded a phosphorylation enrichment of 0.605. DTVRIYDDDFF [UBA1_Y560_E557V] was tested, and the phosphorylation enrichment was 0.555. IGEGTYRQVFK [CDK13_Y716_G717R_YF] gave a phosphorylation enrichment of 0.485. In the case of SYCYRYRCAAR [SUMF1_Y344], the phosphorylation enrichment is reported as 0.484. With MASTSYDFCRV [BST2_Y6_YF] the phosphorylation enrichment was 0.486. Sequence QMIETYFDFRV [NSMF_Y506_L511V] has a phosphorylation enrichment of 3.37. Sequence RQQEDYLLYKQ [RARRES1_Y159] has a phosphorylation enrichment of 0.547. For AGLEDYDRLRP [RAC3_Y64_Q61L], the phosphorylation enrichment was 0.544. With AELVRYYMEHH [PTPN11_Y80_Q79R] the phosphorylation enrichment was 0.514. With TCRPPYFHRNC [HGD_Y333_F329C_YF] the phosphorylation enrichment was 0.4. SVTCTYSPARN [TP53_Y126_L130R] was tested, and the phosphorylation enrichment was 0.489. In the case of FQEKGYNKEPR [CHRND_Y38_L42P], the phosphorylation enrichment is reported as 0.649. EDGCIYPATIA [SMN1_Y109] showed a phosphorylation enrichment of 0.587. WSISFYPQVIM [CTNS_Y143] showed a phosphorylation enrichment of 0.354. In the case of WQQQSYLYSGI [CTNNB1_Y30_D32Y], the phosphorylation enrichment is reported as 7.05. HESEIYCKVCY [CSRP3_Y57] gave a phosphorylation enrichment of 5.52. In the case of LKTNWYNNGKD [DNMT3B_Y404_C403W], the phosphorylation enrichment is reported as 0.544. In the case of KPVDTYFDSTR [DYNC2H1_Y2230_M2227V_YF], the phosphorylation enrichment is reported as 0.567. VFLGAYDHFLP [SLC22A5_Y486_R488H_YF] gave a phosphorylation enrichment of 3.08. In the case of RLPSGYGLAYR [DLK1_Y262], the phosphorylation enrichment is reported as 0.295.
